Reference: patent US20240294895A1, “ENZYMATIC COMPOSITIONS FOR CARBOHYDRATE ANTIGEN CLEAVAGE ON DONOR ORGANS, METHODS AND USES ASSOCIATED THEREWITH” (THE UNIVERSITY OF BRITISH COLUMBIA, priority 2018, published 2024)

Key:
Assay in all cases: Kinetic parameters of FpGalNAcDeAc full length (coupled fluorescence assay, MU release)
Format in all cases: biochemical, Flavonifractor plautii
Conditions in all cases: other: 100 mM NaH2PO4, pH 7.4, 37° C.
[1] = substrate: CC(=O)N[C@H]1[C@@H](O[C@H]2[C@@H](O)[C@@H](CO)O[C@@H](O[C@H]3[C@H](O)[C@@H](CO)O[C@@H](Oc4ccc5c(C)cc(=O)oc5c4)[C@@H]3NC(C)=O)[C@@H]2O[C@@H]2O[C@@H](C)[C@@H](O)[C@@H](O)[C@@H]2O)O[C@H](CO)[C@H](O)[C@@H]1O
Method: (§1) All kinetic assays utilizing 4-methylumbelliferone as leaving group were performed through measurement of fluorescence. To avoid measurement errors based on the inner filter effect (Palmier 2007) standard curves were used to validate the linear range of the fluorophore.
(§2) Michaelis-Menten parameters were determined for A antigen subtype 1penta-MU in 100 mM NaH2PO4, pH 7.4 at 37° C. using the coupled assays described previously (Kwan 2015). The assay was modified to allow detection of cleavage of the subtype 1 (and later 4), by use of BgaC (Jeong 2009) instead of BgaA (Singh 2014) as β-galactosidase. In addition, since A antigen subtype 1penta-MU contains an additional galactose, the concentration of BgaC was increased to 0.2 mg/mL to compensate for its need to cleave both the Gal-β-1,3-B-GlcNAc-β-1,3-Gal-β-MU and Gal-β-MU. Further, FpGalactosaminidase was included to allow the cleavage of the galactosamine-containing intermediate. Reaction setup in 100 μl was 3 nM FpGalNacDeacetylase (4.52 nM FpGalNacDeAc_D1ext, 3.55 nM FpGalNacDeAc_D1+2) and 0.01 mg/mL FpGalactosaminidase, 0.1 mg/mL SpHex, AfcA, 0.2 mg/mL BgaC and varying concentrations of substrate (5 μM-2.5 mM). The reactions were run as a series of four with controls (no FpGalNacDeacetylase) as duplicates. The fluorescence signal (365/435 nm) resulting from MU release by hydrolysis was monitored on a Synergy H1™ plate reader (BioTek™) and converted to concentration using MU standard concentration curves determined under identical reaction conditions. Initial rates (μM/s) were determined and plotted in Grafit 7.0 to determine the kinetic parameters.
(§3) kcat/KM parameter were determined for A antigen subtype 1/2/4tetra-MU at pH 7.4 at 37° C. Reactions (total volume of 100 μL) were performed in black 96-plate wells and as coupled assays in 100 mM NaH2PO4 (pH 7.4) with 12 nM FpGalNAcDeacetylase 0.1 mg/mL SpHex, BgaC (BgaA for subtype II), AfcA, at varying concentrations of substrate (25 μM, 20 μM, 15 μM, 10 μM, 7.5 μM, 5 μM). The reactions were run as a series of four with controls (no FpGalNAcDeacetylase) as duplicates. The fluorescence signal (365/435 nm) resulting from MU release by hydrolysis was monitored on a Synergy H1™ plate reader (BioTek™) and converted to concentration using MU standard concentration curves determined under identical reaction conditions. Initial rates (μM/s) were determined and plotted in Grafit™ 7.0 to determine the kcat/KM (s^−1*mM^−1) parameters.

[2] = substrate: CC(=O)N[C@H]1[C@@H](O[C@H]2[C@@H](O)[C@@H](CO)O[C@@H](O[C@H]3[C@H](O)[C@@H](CO)O[C@@H](O[C@H]4[C@@H](O)[C@@H](CO)O[C@@H](Oc5ccc6c(C)cc(=O)oc6c5)[C@@H]4O)[C@@H]3NC(C)=O)[C@@H]2O[C@@H]2O[C@@H](C)[C@@H](O)[C@@H](O)[C@@H]2O)O[C@H](CO)[C@H](O)[C@@H]1O
Method: as §1, §2, §3

[3] = substrate: CC(=O)N[C@H]1[C@H](Oc2ccc3c(C)cc(=O)oc3c2)O[C@H](CO)[C@@H](O[C@@H]2O[C@H](CO)[C@H](O)[C@H](O[C@H]3O[C@H](CO)[C@H](O)[C@H](O)[C@H]3NC(C)=O)[C@H]2O[C@@H]2O[C@@H](C)[C@@H](O)[C@@H](O)[C@@H]2O)[C@@H]1O
Method: as §1, §2, §3

[4] = substrate: CC(=O)N[C@H]1[C@@H](O[C@H]2[C@@H](O)[C@@H](CO)O[C@@H](O[C@H]3[C@@H](O)[C@@H](CO)O[C@@H](Oc4ccc5c(C)cc(=O)oc5c4)[C@@H]3NC(C)=O)[C@@H]2O[C@@H]2O[C@@H](C)[C@@H](O)[C@@H](O)[C@@H]2O)O[C@H](CO)[C@H](O)[C@@H]1O
Method: as §1, §2, §3

B1: Flavonifractor plautii GalNAcDeacetylase (FpGalNAcDeAc), full length, SEQ ID NO: 2, 4, 5 (Flavonifractor plautii) (protein)
chain: MGHHHHHHHHHHSSGADSSESALNKAPGYQDFPAYYSDSAHADDQVTHPDVVVLEEPWNGYRYWAVYTPNVMRISIYENPSIVASSDGVHWVEPEGLSNPIEPQPPSTRYHNCDADMVYNAEYDAMMAYWNWADDQGGGVGAEVRLRISYDGVHWGVPVTYDEMTRVWSKPTSDAERQVADGEDDFITAIASPDRYDMLSPTIVYDDFRDVFILWANNTGDVGYQNGQANFVEMRYSDDGITWGEPVRVNGFLGLDENGQQLAPWHQDVQYVPDLKEFVCISQCFAGRNPDGSVLHLTTSKDGVNWEQVGTKPLLSPGPDGSWDDFQIYRSSFYYEPGSSAGDGTMRVWYSALQKDTNNKMVADSSGNLTIQAKSEDDRIWRIGYAENSFVEMMRVLLDDPGYTTPALVSGNSLMLSAETTSLPTGDVMKLETSFAPVDTSDQVVKYTSSDPDVATVDEFGTITGVSVGSARIMAETREGLSDDLEIAVVENPYTLIPQSNMTATATSVYGGTTEGPASNVLDGNVRTIWHTNYAPKDELPQSITVSFDQPYTVGRFVYTPRQNGTNGIISEYELYAIHQDGSKDLVASGSDWALDAKDKTVSFAPVEAVGLELKAIAGAGGFGTAAELNVYAYGPIEPAPVYVPVDDRDASLVFTGAWNSDSNGSFYEGTARYTNEIGASVEFTFVGTAIRWYGQNDVNFGAAEVYVDGVLAGEVNVYGPAAAQQLLFEADGLAYGKHTIRIVCVSPVVDFDYFSYVGE
kcat/Km [1]: 23490 ± 630 M⁻¹ s⁻¹ | Km [2]: 340 ± 35 µM | kcat [2]: 4.86 s⁻¹ | kcat/Km [2]: 14280 M⁻¹ s⁻¹ | kcat/Km [3]: 23370 ± 710 M⁻¹ s⁻¹ | kcat/Km [4]: 33270 ± 2080 M⁻¹ s⁻¹
